What all share (assay): co-sedimentation
In test [1] the target is F-actin first mixed with high mol wt TMs (rabbit | rat) (UniProt P68135).
In test [2] the target is F-actin first mixed with low mol wt TMs (rabbit | rat) (UniProt P68135).
The target of a further test is F-actin (rabbit) (UniProt P68135).
Test [3] deals with F-actin with 83-kD protein (rabbit | rat) (UniProt P68135).

“And” between values parts separate entries of the source, which are not always exact repeats. Equal values may be shown once.

As usually defined, the stoichiometry N is a count of units in the complex or per binding partner.

Chain of 83-kD nonmuscle caldesmon (Q62736 whole entry): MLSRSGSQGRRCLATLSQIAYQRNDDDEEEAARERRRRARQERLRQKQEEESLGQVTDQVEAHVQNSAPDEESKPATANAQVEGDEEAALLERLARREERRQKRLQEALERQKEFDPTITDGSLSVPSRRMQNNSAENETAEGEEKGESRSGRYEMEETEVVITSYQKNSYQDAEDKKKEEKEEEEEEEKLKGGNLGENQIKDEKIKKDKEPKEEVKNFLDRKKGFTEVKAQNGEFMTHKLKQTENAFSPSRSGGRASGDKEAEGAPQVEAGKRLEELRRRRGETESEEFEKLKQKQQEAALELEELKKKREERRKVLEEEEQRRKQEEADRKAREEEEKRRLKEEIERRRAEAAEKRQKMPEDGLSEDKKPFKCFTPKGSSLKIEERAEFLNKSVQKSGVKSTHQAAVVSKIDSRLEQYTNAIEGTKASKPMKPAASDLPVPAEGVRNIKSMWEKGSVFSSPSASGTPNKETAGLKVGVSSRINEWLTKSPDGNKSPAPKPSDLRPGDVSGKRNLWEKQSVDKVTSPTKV

For “83-kD nonmuscle caldesmon (from UniProt Q62736 1-531) (natural protein)”, the stoichiometry N (actin per 83-kD protein) in test [1] and in test [2] was 6 throughout.

In the test with F-actin (rabbit), “high mol wt TMs (a mixture of TM-1 [40,000] and TM-2 [36,500])” showed a percent of the TM mass bound to actin (50 mM KCl, no 83-kD protein) of less than 10% and a percent of the TMs bound to actin (50 mM KCl, no 83-kD protein) of 10%. The fold increase of TM binding to actin against no 83-kD protein (50 mM KCl) in test [3] came to 10 fold.

Consider “low mol wt TMs (a mixture of TM-4 [32,400] and TM-5 [32,000])”, for which, in the test with F-actin (rabbit), the Ka came out at 440000 M⁻¹; the TM bound to actin (0.12 mg/ml TMs, no 83-kD protein) amounted to 0.4 µmol; the molar ratio of TMs to sedimentable actin (0.06 mg/ml TMs, no 83-kD protein) worked out at 157 actin per TM; the molar ratio of TMs to sedimentable actin (0.12 mg/ml TMs, no 83-kD protein) amounted to 29 actin per TM. Also, in the test with F-actin (rabbit), the percent of actin saturated with TMs (0.06 mg/ml TMs, no 83-kD protein) was 3% and 4%; the percent of actin saturated with TMs (0.12 mg/ml TMs, no 83-kD protein) is 20%; the percent of the TM mass bound to actin (0.06 mg/ml TMs, no 83-kD protein) was 5% and 7%; the stoichiometry N was 6 actin per TM. Besides, in test [3], the Ka was 1.5e+06 M⁻¹ and the molar ratio of TMs to sedimentable actin (0.06 mg/ml TMs, 83-kD protein added) amounted to 14 actin per TM.

(Values after article PMC2115152.)
